Values quoted from earlier work in patent publication US20240277840A1, “SUPERCONCENTRATED FORMULATIONS OF BIOACTIVE AGENTS” (UPKARA, INC., priority 2021, published 2024).

Conditions: intraperitoneal (IP) administration, preclinical

catumaxomab
local concentration of the antibody in the ascites fluid: high local concentrations | systemic exposure, detectable in plasma: < 5%
